# Laboratory results from US20240358762A1 (UNIVERSITY OF PITTSBURGH OF THE COMMONWEALTH SYSTEM OF …, published 2024).
# T1: human PRTG polypeptide (human, UniProt Q2VWP7 36-952, limits assumed)
# T1 construct: also called protogenin
# T1 sequence (looked up): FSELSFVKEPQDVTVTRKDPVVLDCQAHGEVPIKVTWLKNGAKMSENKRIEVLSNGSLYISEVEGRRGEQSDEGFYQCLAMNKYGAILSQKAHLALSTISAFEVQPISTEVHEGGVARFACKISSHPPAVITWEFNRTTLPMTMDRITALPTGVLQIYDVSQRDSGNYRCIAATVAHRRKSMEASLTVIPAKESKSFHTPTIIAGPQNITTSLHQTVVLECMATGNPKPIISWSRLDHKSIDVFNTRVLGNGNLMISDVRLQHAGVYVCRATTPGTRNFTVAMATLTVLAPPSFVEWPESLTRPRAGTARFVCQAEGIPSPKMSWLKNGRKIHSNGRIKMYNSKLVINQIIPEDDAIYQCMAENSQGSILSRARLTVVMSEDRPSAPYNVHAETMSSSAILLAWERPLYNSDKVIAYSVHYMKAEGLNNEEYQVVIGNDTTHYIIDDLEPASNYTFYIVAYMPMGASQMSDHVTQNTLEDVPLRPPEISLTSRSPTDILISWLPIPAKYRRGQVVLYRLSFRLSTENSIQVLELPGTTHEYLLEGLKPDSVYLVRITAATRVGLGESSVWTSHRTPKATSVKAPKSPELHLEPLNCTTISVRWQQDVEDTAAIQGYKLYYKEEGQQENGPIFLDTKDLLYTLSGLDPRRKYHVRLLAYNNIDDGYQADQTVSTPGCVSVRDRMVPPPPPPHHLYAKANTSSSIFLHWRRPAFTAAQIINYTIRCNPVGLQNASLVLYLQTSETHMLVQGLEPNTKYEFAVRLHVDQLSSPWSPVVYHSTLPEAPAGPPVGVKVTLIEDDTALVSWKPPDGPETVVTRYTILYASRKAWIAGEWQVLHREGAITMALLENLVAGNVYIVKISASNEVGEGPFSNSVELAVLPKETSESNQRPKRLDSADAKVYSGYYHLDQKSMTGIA
# B1: VH domain Clone #7 (other)
# VH: EVQLVESGGGLVQPGGSLRLSCAASGFTFSNAWMSWVRQAPGKGLEWIGRIYSSGSTNYNPSLKSRVTISRDNSKNTLYLQMNSLRAEDTALYYCASTYRSSSGEYFQHWGQGTLVTVSSS
# notes: also called #7 (VH domain)
# B2: VH domain Clone #2 (other)
# VH: EVQLVESGGGLVQPGGSLRLSCKGSGFTFSNFAMNWVRQAPGKGLEWVSAISGSGGSTYYADSVKGRFTISRDNSKNTLYLQMNSLRAEDTALYYCARGPDYYGSGSHGWFDPWGQGTLVTVSS
# notes: also called #2 (VH domain)
# B3: VH domain Clone #3 (other)
# VH: EVQLVESGGGLVQPGGSLRLSCAASYFDFDSYEMSWVRQAPGKALEWLGRIYTSGTTNYNPSLKSRVTISRDNSKNTLYLQMNSLRAEDTATYYCAMTGPYYDSSGYYPARHAEYFQHWGQGTLVTVSS
# notes: also called #3 (VH domain)
# B4: VH domain Clone #4 (other)
# VH: EVQLVESGGGLVQPGGSLRLSCAASGSAFGSHWMHWVRQAPGKGLEWVSSISSGGSSIYYADSVKGRFTISRDNSKNTLYLQMNSLRAEDTAVYYCARVRRDDDSNYRPFDVWGQGTMVTVSS
# notes: also called #4 (VH domain)
# B5: VH domain Clone #6 (other)
# VH: EVQLVESGGGLVQPGGSLRLSCAASGFTFSNYGMSWVRQAPGQRLEWIGWIDTKTGNPRYGQGFTGRFTISRDNSKNTLYLQMNSLRAEDTATYYCVSTVPNGVEYFQHWGQGTLVTVSS
# notes: also called #6 (VH domain)
# B6: VH domain Clone #5 (other)
# VH: EVQLVESGGGLVQPGGSLRLSCKGSGFNFGDYAMHWVRQAPGKALEWIGYIYNTGSTKYNPSLKSLVTISRDNSKNTLYLQMNSLRAEDTATYYCVSTVTNGVEYFQHWGQGTLVTVSS
# notes: also called #5 (VH domain)
# B7: VH domain Clone #1 (other)
# VH: EVQLVESGGGLVQPGGSLRLSCKASGFTVSSNYMHWVRQAPGKGLEWIGGINHSGRTNYKSSLKSRVTISRDNSKNTLYLQMNSLRAEDTAVYYCARLPPSRDGYNYADYWGQGTLVTVSS
# notes: also called #1 (VH domain)
# B8: VH domain Clone #8 (other)
# VH: EVQLVESGGGLVQPGGSLRLSCKGSGFTFSNYWMHWVRQAPGKGLEWVSAISGSGGSTYYADSVKGRFTISRDNSKNTLYLQMNSLRAEDTATYYCATLCRGDSCYSPFDPWGQGTLVTVSSS
# notes: also called #8 (VH domain)
# Molecular target: T1, human PRTG polypeptide
# Experiment: ELISA and SPR (Blitz) as stated; which method gave the EC50 is not said
# Experimental: Binding affinity and specificity to a human PRTG polypeptide were tested using an ELISA and SPR (Blitz). […] Clone #1 was determined to bind to the human PRTG fibronectin type-III 1 domain; clone #2 was determined to bind to the human PRTG fibronectin type-III 3 domain; and clones #3, #4, #5, #6, #7, and #8 were determined to bind to the human PRTG fibronectin type-III 5 domain. Clone #1 binding to the human PRTG fibronectin type-III 1 domain was determined by ELISA. Clone #2 binding was based on the panning being performed using a PRTG fibronectin type-III 3 domain; and clones #3, #4, #5, #6, #7, and #8 binding was based on the panning being performed using a PRTG fibronectin type-III 5 domain.
row,EC50,Binder
1,0.29 nM,B1
2,30 nM,B2
3,0.75 nM,B3
4,0.9 nM,B4
5,6.25 nM,B5
6,1.35 nM,B6
7,2.8 nM,B7
8,0.81 nM,B8
